Test results as given in patent EP4806514A2 (Lepu Biopharma Co., Ltd., dated 2025).
Changes are numbered by the printed parent chain.

B1: 16C18 chimeric mAb (antibody, V domains shown)
VH: QVQLQQSGAELAKPGTSVKMSCKASGYNFTNYWMNWVKQRPGQGLEWIGTFNPSYGYTEYNQKFKDKAILTADKSSSTAYMQLNSLTSEDSAVYYCARRSSHFDYWGQGTTLTVSS
VL: DIVMSQSPSSLAVSAGEKVTMSCKSSQSLLNSRTRTNYLAWYQQKPGQSPKLLIYWASTRESGVPDRFTGSGSGTDFTLTISSVQAEDLAVYYCKQSYNLPTFGGGTKLEIK
notes: also called 16C8
B2: 152A1D12-z17 (antibody, V domains shown)
VH: QVQLVQSGAEVKKPGASVKVSCKASGYTFTDYNMHWVKQAPGQRLEWIGYIYRNNGYNGYNQKFKNKATLTVDTSASTAYMELSSLRSEDTAVYYCARNYWRGAMDYWGQGTTVTVSS
VL: EIVLTQSPATLSLSPGERATLSCSASSSISYMHWYQQKPGQAPRLLIYDTSKLASGIPARFSGSGSGTDFTLTISSLEPEDFAVYYCHQRSSYPWTFGGGTKVEIK
notes: Humanized, human IgG1 constant region; also called 152A1D12 HU-VH1-3 / HU-VL2-0
B3: 152A1D12-z18 (antibody, V domains shown)
VH: B2 VH
VL: B2 VL with L46W, I57V
notes: Humanized, human IgG1 constant region; also called 152A1D12 HU-VH1-3 / HU-VL2-1
B4: 152A1D12-z13 (antibody, V domains shown)
VH: B2 VH
VL: B2 VL with Q41K, R44K, I57V, A59S, E78Q, V84T
notes: Humanized, human IgG1 constant region; also called 152A1D12 HU-VH1-3 / HU-VL1-0
B5: 152A1D12 chimeric mAb (antibody, V domains shown)
VH: EVQLQQSGPELVKPGASVKISCKASGYTFTDYNMHWVKQSHGKSLEWIGYIYRNNGYNGYNQKFKNKATLTVDSSSSTAYMELRSLTSEDSAVYYCARNYWRGAMDYWGQGTSVTVSS
VL: QIVLTQSPAIMSASPGEKVTMTCSASSSISYMHWYQQKPGTSPKRWIYDTSKLASGVPARFSGSGSGTSYSLTISSMEAEDAGTYYCHQRSSYPWTFGGGTKLEIK
notes: Mouse variable regions fused to human IgG1 constant region
B6: 120B10C5 chimeric mAb (antibody, V domains shown)
VH: QVQLQQSGAELAKPGASVKLSCRTSGYTFTNYWMHWVKQRPGQGLEWIGYINPSSGYTKYNQKFKDKATLTADKSSSTAYMQLSSLTYEDSAVHYCARSLNYYDSGYWYFDVWGTGTAVTVSS
VL: DIVLTQSPASLAVSLGQRATISCRASQSVSTSSYSYMHWYQQKPGQPPKLLIKYASNLESRVPARFSGSGSGTDFTLNIHPVEEEDSATYYCQHSWEIPWTFGGGTKLEIK
notes: as for B5
B7: 143H10E4 chimeric mAb (antibody, V domains shown)
VH: QVQLQQSDAELVKPGASVKISCKASGSTFTDHTIHWVKQRPEQGLEWIGYIYPVYGYTQNNEKFKGKATLTADKSSSTAYMQLNSLTSEDSAVYFCARSRDSNPYYFDYWGQGTTLTVSS
VL: EIVLTQSPALMAASPGEKVTITCTVSSSISSSNLHWYQQKSGTSPKPWIYGTSNLASGVPVRFSGSGSGTSYSLTISSMEAEDAATYYCQQWSSYPFTFGSGTKLKMK
notes: as for B5
B8: 155B11C6 chimeric mAb (antibody, V domains shown)
VH: QVQLQQSGAELARPGASVKMSCKASGYTFTSYTMHWVKQRPGQGLEWIGYIDPKSDYNYYNQKFKDKATLTADKSSSTAYMQLSGLTSEDSTVYYCARGFFKGYFDVWGAGTTVTVSS
VL: B7 VL with A9P, T24S, G42E, V61I, S93T, S101A, K106E, M107L
notes: as for B5
B9: 69E3H11-z12a27 (antibody, V domains shown)
VH: QVQLVQSGAEVKKPGASVKVSCKASGYTFTTYWMHWVKQAPGQRLEWIGEIDPSDSYANYNQKFKGKATLTVDKSASTAYMELSSLRSEDTAVYYCALYYGYGDWGQGTTVTVSS
VL: EIVLTQSPGTLSLSPGERATLSCSVSSSISSIHLHWYQQKPGQAPRLLIYRTRNRASGIPDRFSGSGSGTDFTLTISRLEPEDFAVYYCQQGSNLPLTFGQGTRLEIK
B10: 69E3H11-z12a28 (antibody, V domains shown)
VH: B9 VH
VL: B9 VL with R53K, R55L
B11: 69E3H11-z12a42 (antibody, V domains shown)
VH: B9 VH
VL: B9 VL with S27A, S31R
B12: 134C7B1 chimeric mAb (antibody, V domains shown)
VH: AVQLQQSGPELLKPGASVKISCKASGYTFTDYTMHWVKQSHGKSLEWIGGINPNYGGTSYNETFKDKATLTVDKSSNTAYMELRSLTSEDSAVYYCARIPYGSYPMDYWGQGTSVTVSS
VL: DIVMSQSPSSLTVSVGEKVTMSCKSSQSLLYSSNQKIYLAWYQQKPGQSPKLLISWASTRESGVPDRFTGSGSGTDFTLTISSVKAEDLADYYCQQYYRYRTFGGGTKLEIK
notes: as for B5

Experiments:
[1] = molecular target: T1, hCDH17-his (full length extracellular domain of human CDH17, Q23-M787, his tag at the C-terminal) (human, UniProt Q12864 23-787); experiment: ELISA, hCDH17-his coated at 2 ug/mL
T1 construct: Limits of the construct (UniProt Q12864, Q23-M787, C-terminal his tag); also called human CDH17-his protein; human CDH17 protein
T1 sequence: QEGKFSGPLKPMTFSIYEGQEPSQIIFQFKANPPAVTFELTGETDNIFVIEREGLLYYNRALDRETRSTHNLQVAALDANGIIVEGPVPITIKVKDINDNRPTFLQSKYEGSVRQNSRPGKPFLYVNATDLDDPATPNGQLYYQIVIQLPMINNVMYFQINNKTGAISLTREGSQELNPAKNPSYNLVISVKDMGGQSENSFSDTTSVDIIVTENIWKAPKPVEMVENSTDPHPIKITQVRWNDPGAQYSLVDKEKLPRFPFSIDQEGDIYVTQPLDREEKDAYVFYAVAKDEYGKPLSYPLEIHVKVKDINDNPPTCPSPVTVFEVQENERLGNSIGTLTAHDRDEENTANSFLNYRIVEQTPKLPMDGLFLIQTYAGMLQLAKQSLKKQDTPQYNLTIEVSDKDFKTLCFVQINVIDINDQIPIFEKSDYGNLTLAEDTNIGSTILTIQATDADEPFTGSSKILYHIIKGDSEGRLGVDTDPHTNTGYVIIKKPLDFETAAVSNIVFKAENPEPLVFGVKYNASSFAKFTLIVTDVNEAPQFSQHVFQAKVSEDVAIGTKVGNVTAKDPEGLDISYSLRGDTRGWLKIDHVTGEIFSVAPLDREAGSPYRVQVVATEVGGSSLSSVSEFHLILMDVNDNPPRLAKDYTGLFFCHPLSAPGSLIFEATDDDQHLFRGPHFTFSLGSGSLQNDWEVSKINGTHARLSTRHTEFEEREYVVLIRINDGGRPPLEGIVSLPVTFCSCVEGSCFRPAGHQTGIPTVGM

[2] = molecular target: T2, human CDH17, full length, expressed on cells (HEK293-hCDH17); AsPC-1, HCT-8, AGS, LoVo, KATO III, HT-29 tumor … (human, UniProt Q12864 23-832); experiment: flow cytometry, HEK293-hCDH17 cells
T2 construct: also called human CDH17 expressed on tumor cells
T2 sequence: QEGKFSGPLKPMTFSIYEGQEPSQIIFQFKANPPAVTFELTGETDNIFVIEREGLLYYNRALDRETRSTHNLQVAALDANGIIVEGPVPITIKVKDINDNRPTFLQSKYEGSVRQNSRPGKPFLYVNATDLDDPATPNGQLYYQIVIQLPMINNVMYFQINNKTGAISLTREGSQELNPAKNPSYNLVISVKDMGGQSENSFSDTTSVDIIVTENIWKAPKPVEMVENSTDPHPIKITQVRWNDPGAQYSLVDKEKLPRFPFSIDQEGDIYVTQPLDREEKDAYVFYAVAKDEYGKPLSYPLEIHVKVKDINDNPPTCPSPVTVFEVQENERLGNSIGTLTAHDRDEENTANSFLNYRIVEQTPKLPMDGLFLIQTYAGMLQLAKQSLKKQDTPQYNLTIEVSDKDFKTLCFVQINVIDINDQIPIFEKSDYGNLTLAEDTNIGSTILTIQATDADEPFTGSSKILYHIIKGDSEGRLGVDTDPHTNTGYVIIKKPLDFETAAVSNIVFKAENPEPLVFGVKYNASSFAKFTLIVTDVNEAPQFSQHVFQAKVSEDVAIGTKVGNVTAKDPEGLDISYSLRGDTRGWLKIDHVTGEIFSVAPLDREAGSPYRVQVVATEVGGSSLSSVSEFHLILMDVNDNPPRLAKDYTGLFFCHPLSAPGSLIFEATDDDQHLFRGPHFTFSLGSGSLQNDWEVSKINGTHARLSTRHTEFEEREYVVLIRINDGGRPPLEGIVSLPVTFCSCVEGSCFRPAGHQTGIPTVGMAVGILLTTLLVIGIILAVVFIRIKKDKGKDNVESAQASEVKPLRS

[3] = molecular target: T3, human CDH16 protein (hCDH16-his, Novoprotein, Cat. No. CJ16) (human, UniProt O75309 19-786); experiment: ELISA, hCDH16-his coated at 1 ug/mL
T3 construct: Bought; also called human CDH16-his
T3 sequence (looked up): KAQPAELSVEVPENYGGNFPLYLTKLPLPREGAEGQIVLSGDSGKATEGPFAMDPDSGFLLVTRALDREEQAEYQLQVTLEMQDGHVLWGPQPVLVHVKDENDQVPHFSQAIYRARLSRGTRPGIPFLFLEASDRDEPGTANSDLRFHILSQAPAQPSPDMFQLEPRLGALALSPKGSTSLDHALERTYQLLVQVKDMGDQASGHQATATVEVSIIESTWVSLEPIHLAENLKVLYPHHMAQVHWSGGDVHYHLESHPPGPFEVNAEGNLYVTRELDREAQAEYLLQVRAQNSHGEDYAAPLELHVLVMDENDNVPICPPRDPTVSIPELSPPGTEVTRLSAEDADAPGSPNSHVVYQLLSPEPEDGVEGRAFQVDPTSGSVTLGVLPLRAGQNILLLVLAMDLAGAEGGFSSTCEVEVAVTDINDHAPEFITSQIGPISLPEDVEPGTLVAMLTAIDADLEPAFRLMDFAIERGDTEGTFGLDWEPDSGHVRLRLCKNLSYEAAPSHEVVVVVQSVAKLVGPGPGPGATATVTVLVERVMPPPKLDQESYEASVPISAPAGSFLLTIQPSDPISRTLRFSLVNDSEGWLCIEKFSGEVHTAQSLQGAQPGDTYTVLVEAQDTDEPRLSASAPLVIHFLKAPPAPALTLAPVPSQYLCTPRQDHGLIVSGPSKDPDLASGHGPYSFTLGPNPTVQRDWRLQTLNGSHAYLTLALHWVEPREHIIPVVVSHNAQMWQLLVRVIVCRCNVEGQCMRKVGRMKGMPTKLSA

[4] = molecular target: T1, hCDH17-his (full length extracellular …); experiment: SPR (Biacore 8K), antibody captured on Protein A chip, hCDH17-his injected
[5] = molecular target: T2, human CDH17, full length, expressed on …; experiment: flow cytometry, AGS cells
[6] = molecular target: T2, human CDH17, full length, expressed on …; experiment: flow cytometry, LoVo, HCT-8 and AsPC1 cells
[7] = molecular target: T1, hCDH17-his (full length extracellular …); experiment: SPR (Biacore 8K), two doses, antibody captured on Protein A chip, hCDH17-his at 25 nM and 100 nM

Row | Binder | binding result [1] | binding result [2] | binding result [3] | binding result [4] | binding result [5] | binding result [6] | binding result [7]
1 | B1 | binds | binds | no binding (tested: titrated from 100 nM) | – | – | – | –
2 | B2 | – | – | – | binds | binds | – | –
3 | B3 | – | – | – | binds | binds | – | –
4 | B4 | – | – | – | binds | binds | – | –
5 | B5 | binds | binds | no binding (tested: titrated from 100 nM) | – | – | – | –
6 | B6 | binds | binds | no binding (tested: titrated from 100 nM) | – | – | – | –
7 | B7 | binds | binds | no binding (tested: titrated from 100 nM) | – | – | – | –
8 | B8 | binds | binds | no binding (tested: titrated from 100 nM) | – | – | – | –
9 | B9 | – | – | – | – | – | binds | binds
10 | B10 | – | – | – | – | – | binds | binds
11 | B11 | – | – | – | – | – | binds | binds
12 | B12 | binds | binds | no binding (tested: titrated from 100 nM) | – | – | – | –
